Reference: patent US7067495

Biological target: human IL-8 in L-CMV melanoma cell conditioned medium (human) (UniProt P10145)
Assay: cell-based or functional assay

UniProt P10145, sequence (P10145 23-99 limits assumed): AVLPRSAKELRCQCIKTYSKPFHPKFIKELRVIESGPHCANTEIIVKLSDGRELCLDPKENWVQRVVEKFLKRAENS

inhibition of PMNLs chemotaxis induced by L-CMV CCM: 30%
Substance: mouse anti-hIL-8 mAb (6214.11, R&D Systems) (antibody)
